This is an account of results in patent US20240228562A1, “NOVEL LIPOCALIN MUTEINS SPECIFIC FOR CONNECTIVE TISSUE GROWTH FACTOR (CTGF)” (PIERIS PHARMACEUTICALS GMBH, priority 2021, published 2024).

Marks after values point to notes of the source that are not given here.

Series [1] in a line: Nebulization behavior, droplet size distribution by laser diffraction. The settings on record: vibrating mesh nebulizer, Malvern Spraytec. Format: physicochemical. The method, then: The suitability of the CTGF-targeting lipocalin muteins and fusion proteins disclosed herein for administration via inhalation was tested using a commercially available vibrating mesh nebulizer (Philips InnoSpire Go®). Droplet size distribution was characterized by laser diffraction using the nebulizer in conjunction with Malvern Spraytec and inhalation cell.
Representative data for the exemplary CTGF-targeting lipocalin mutein of SEQ ID NO: 23 (A) and for the fusion protein of SEQ ID NO: 74 (B) are shown in FIG. 5 and below Table 10. […] Nebulization of the lipocalin muteins and fusion proteins had no negative impact on the stability and activity of the molecules (data not shown).

Series [2] relates to CCL-206 lung fibroblasts co-cultured with primary murine Epcam-positive epithelial progenitor cells. Kind of series: Lung organoid formation model. Format: cell-based. The settings on record: 14 days treatment; nintedanib 100 nM; SEQ ID NO: 74 at 100 nM. As to the method:
The effect of CTGF-targeting lipocalin muteins was analyzed using an organoid model for lung regeneration. In this model, CCL-206 lung fibroblasts are co-cultured with freshly isolated primary murine Epcam-positive epithelial progenitor cells, and the number of formed organoids is analyzed after 14 days. TGF-b1 pre-treatment of CCL-206 fibroblasts leads to an impaired organoid formation and resembles an impairment of lung regeneration as for example observed in lung disease, such as IPF. The impaired formation of organoids can be rescued by treatment with different drugs, such as nintedanib, which is used as a positive control in this model. […] Analysis of organoid numbers confirmed the impairment of organoid formation by TGF-b1 stimulation.

The test system of series [3] is TGF-β1-stimulated normal human lung fibroblasts (NHLFs). Kind of series: Binding to activated human lung fibroblasts. In kind it is cell-based. The settings on record: 24 h incubation with 10 ng/ml TGF-β1; immunofluorescence of lipocalin scaffold. As to the method:
Binding of the CTGF-targeting lipocalin muteins and fusion proteins disclosed herein to CTGF-expressing, TGF-β1-stimulated normal human lung fibroblasts (NHLFs) was tested by incubating NHLFs for 24 h with constructs and 10 ng/ml TGF-β1, which induces CTGF expression. NHLFs without TGF-β1 stimulation were included as negative control. Constructs were detected with a secondary antibody against the lipocalin scaffold coupled to AlexaFluor647 after NHLFs were fixed in 4% PFA and blocked with 5% BSA. Images were acquired on the Cytation5 Reader (Biotek). Signals were quantified in Gene5 software and normalized to the respective controls. For the experiments, cells were grown under conditions that facilitate pseudo-3D extracellular matrix deposition as described by Good et al. (Good et al., BMC Biomed Eng, 1:14 (2019)).
Representative data are shown in FIG. 4 and illustrate the ability of the CTGF-targeting lipocalin muteins and fusion proteins disclosed herein to bind to activated human lung fibroblasts expressing CTGF in a concentration-dependent manner.

A further series addresses T1, CTGF (Homo sapiens, UniProt P29279).
T1 sequence (P29279 27-349): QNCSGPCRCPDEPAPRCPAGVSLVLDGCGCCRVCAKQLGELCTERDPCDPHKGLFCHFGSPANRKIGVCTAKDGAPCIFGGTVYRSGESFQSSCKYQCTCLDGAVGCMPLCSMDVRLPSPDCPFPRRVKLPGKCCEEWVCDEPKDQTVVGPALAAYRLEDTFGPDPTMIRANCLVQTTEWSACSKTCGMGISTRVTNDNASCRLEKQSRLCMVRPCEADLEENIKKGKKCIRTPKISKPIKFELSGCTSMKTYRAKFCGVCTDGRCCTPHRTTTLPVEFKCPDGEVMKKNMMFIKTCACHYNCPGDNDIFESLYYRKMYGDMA
Kind of series: ELISA-based competition assay with anti-CTGF antibody. Format: binding. The settings on record: data not shown. (In an ELISA, binding on a coated surface is turned into a signal by an enzyme label.)

Another series has as its system cynomolgus CTGF. The series can be described thus: SPR binding kinetics and affinity, cynomolgus CTGF. More on the design: key: B binding without determination of kinetics constants. The settings on record: 25° C., 1:1 binding model. The method, boiled down: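 Targets either amine-coupled to CM5 chip (300–1100 RU; Fc-tagged human, untagged rat/murine) or Fc-captured via anti-human IgG; muteins injected 180 s contact, 900–3600 s dissociation, 30 μL/min, 25° C. Double-referenced sensorgrams fit to 1:1 model giving kon, koff and KD.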
In general terms: Surface plasmon resonance follows binding to a sensor surface in real time, without labels.

A short description of a further series: Mouse lung PK. Format: in vivo. The note with it: mice. The method, then:
The lipocalin mutein (100 μg/mouse) was oropharyngeally administered to mice, and exposure in different compartments was measured after 2, 4, 8 and 24 h by ELISA (FIG. 7A). 100 μg of the antibody were administered to mice via intravenous infusion, and exposure was measured after 1, 8, 24 and 96 h by ELISA (FIG. 7B).

[4] abbreviates: mutein 100 μg oropharyngeal, antibody 100 μg intravenous, compartment of administration set to 100%.

Sequence of cynomolgus CTGF (as listed by the source): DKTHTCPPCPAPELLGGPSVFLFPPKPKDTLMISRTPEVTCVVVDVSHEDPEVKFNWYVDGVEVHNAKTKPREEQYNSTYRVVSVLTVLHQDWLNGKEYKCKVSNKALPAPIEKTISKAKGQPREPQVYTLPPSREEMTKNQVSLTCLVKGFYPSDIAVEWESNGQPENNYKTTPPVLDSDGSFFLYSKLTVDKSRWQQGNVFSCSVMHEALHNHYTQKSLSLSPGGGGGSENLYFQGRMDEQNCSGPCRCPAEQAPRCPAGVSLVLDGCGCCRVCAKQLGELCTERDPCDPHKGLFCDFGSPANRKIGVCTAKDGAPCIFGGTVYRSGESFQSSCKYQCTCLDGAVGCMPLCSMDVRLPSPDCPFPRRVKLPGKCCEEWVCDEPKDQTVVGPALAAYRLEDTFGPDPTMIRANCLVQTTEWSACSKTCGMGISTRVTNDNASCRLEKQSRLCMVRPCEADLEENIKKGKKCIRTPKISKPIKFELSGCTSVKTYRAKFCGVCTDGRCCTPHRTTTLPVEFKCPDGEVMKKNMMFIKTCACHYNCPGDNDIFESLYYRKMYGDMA

B1: SEQ ID NO: 74: fusion protein comprising two CTGF-binding lipocalin muteins (protein)
chain: QDSTSDLIPAPPLSKVPLQQNFQDNQFQGKWYVVGLAGNAILREDKQPAKMFATIYELKEDKSYDVTSVRFEAKSCKYTIKTFVPGSQPGEFTAGYIKSAPGQTSTLVRVVSTNYNQHAMVFFKHVTQNREIFVITLYGRTKELTSELKENFIRFSKSLGLPENHIVFPVPIDQCIDGGGGGSGGGGSGGGGSQDSTSDLIPAPPLSKVPLQQNFQDNQFQGKWYVVGWAGNVKLREDKQPQKMSATIYELKEDKSYDVTEVVFEQKKCHYIIKTFVPGSQPGEFTAGDIKSPPGYTSSLVRVVSTNYNQHAMVFFKKVSQNREFFWITLYGRTKELTSELKENFIRFSKSLGLPENHIVFPVPIDQCIDG
modifications: fusion protein
Consider B1, for which, in series [1], the “% V < 1 μm” value amounted to 0.984%, the “% V < 5 μm” value came to 54.81%, the “% V < 10 μm” value stood at 88.4% and the Dv10 was found to be 1.8 μm. In series [1], this molecule yielded a Dv50 of 4.6 μm and a Dv90 of 10.5 μm. In series [1] (listed as 74), this molecule registered a Dv10 of 1.824 μm and a Dv50 of 4.589 μm. Also, the “Effect on TGF-b1 impaired organoid formation” value in series [2] is given as “even stronger trend for improved organoid formation”. Further, the “Binding to TGFβ-activated NHLFs” value in series [3] is reported as “binding”.

B2: SEQ ID NO: 23: optimized CTGF-binding hNGAL lipocalin mutein (protein)
chain: QDSTSDLIPAPPLSKVPLQQNFQDNQFQGKWYVVGVAGNAILRPDKQPAKMFATIYELKEDKSYDVTSVRFEAKSCKYTIKTFVPGSQPGEFTSGQIKSAPGQTSTLVRVVSTNYNQHAMVFFKHVSQNREIFVITLYGRTKELTSELKENFIRFSKSLGLPENHIVFPVPIDQCIDG
modifications: lipocalin mutein
On to B2, for which, in series [1], the “% V < 1 μm” value was found to be 1.874%, the “% V < 5 μm” value is given as 68.97%, the “% V < 10 μm” value is listed as 93.55% and the Dv10 is 1.4 μm. Further, in series [1], the Dv50 is reported as 3.5 μm and the Dv90 is 8.6 μm. Besides, in series [1] (listed as 23), the Dv10 stood at 1.471 μm, the Dv50 is reported as 3.484 μm and the Dv90 is reported as 8.622 μm. The “Competition with antibody of SEQ ID NOs: 60 and 61 for binding to CTGF” value with CTGF is recorded as “competed with the antibody”. Besides, in the series with cynomolgus CTGF, the “cynomolgus CTGF KD” value is reported as “B”, the “cynomolgus CTGF koff” value is recorded as “B” and the “cynomolgus CTGF kon” value is listed as “B”. In addition, the “Binding to TGFβ-activated NHLFs” value in series [3] was “binding”. For the same molecule, the “Exposure in the lung” value in “Mouse lung PK” (100 μg/mouse oropharyngeal, 2-24 h, ELISA) is listed as “significant exposure in the lung over 24 h”. In “Mouse lung PK” (setting [4]), the “Lung exposure compared to plasma” value is recorded as 100* % and the “Plasma exposure compared to lung” value is given as “approx. 1%”. In addition, the “Plasma exposure compared to lung” value in “Mouse lung PK” (mutein 100 μg oropharyngeal, antibody 100 μg intravenous, compartment of administration set to 100%, listed as 23) came to 0.9%.

B3: SEQ ID NO: 15: optimized CTGF-binding hNGAL lipocalin mutein (protein)
chain: QDSTSDLIPAPPLSKVPLQQNFQDNQFQGKWYVVGLAGNAILREDKQPAKMFATIYELKEDKSYDVTSVRFEAKSCKYTIKTFVPGSQPGEFTAGYIKSAPGQTSTLVRVVSTNYNQHAMVFFKHVTQNREIFVITLYGRTKELTSELKENFIRFSKSLGLPENHIVFPVPIDQCIDG
modifications: lipocalin mutein
Regarding B3, in the series with cynomolgus CTGF, the “cynomolgus CTGF koff” value is 7.57e-05 s⁻¹ and the “cynomolgus CTGF kon” value turned out to be 107000 M⁻¹ s⁻¹.
